This test concerns the target T1, human GIPR (hGIPR) (Homo sapiens, UniProt P48546).
T1 sequence (P48546 22-466): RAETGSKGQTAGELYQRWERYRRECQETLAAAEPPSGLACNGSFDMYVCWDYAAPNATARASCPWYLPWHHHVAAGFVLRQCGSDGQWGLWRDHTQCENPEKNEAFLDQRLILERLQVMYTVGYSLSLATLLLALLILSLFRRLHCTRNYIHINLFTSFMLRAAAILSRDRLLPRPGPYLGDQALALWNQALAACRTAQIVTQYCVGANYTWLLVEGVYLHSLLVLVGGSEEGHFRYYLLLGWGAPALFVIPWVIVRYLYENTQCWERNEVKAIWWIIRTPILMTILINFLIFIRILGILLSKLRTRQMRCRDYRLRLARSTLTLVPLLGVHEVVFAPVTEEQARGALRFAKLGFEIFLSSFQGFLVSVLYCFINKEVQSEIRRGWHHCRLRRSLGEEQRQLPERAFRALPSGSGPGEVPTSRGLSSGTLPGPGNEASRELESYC
In words: Functional in vitro GIPR antagonist potency assay (human GIPR-CHO cAMP, HTRF). The class given is cell-based. The conditions noted are these: CHO-K1 cells stably expressing hGIPR, 1.5 nM hGIP. The source says:
Following agonist activation, hGIPR associates with the G-protein complex causing the Gas subunit to exchange bound Guanosine diphosphate (GDP) for guanosine triphosphate (GTP), followed by dissociation of the Gas-GTP complex. The activated Gas subunit can couple to downstream effectors to regulate the levels of second messengers or cAMP within the cell. Thereby, determination of intracellular cAMP levels allows for pharmacological characterization. Intracellular cAMP levels were quantified using a homogenous assay utilizing the Homogeneous Time Resolved Fluorescence (HTRF) technology from Perkin Elmer. The method was a competitive immunoassay between native cAMP produced by the cells and cAMP labelled with the acceptor dye, d2. The two entities competed for binding to a monoclonal anti-cAMP antibody labeled with cryptate. […] G2269) in 1× cAMP assay buffer was added to the assay plate (5 μL/well) at 4.5 nM (final concentration of 1.5 nM) and incubated for another 30 minutes at 37° C., after which intracellular cAMP levels were quantified with Cisbio cAMP-GS Dynamic kit (#62AM4PEC) with dilution of 20× of D2 and Eu in lysis buffer, mixed 1:1 by volume, and added 15 ul/well into plate, with a quick spin. […] The plate was then read on an Envision plate reader. Data were analyzed using the ratio of fluorescence intensity at 620 and 665 nm for each well.

Regarding “2G10: fully human monoclonal anti-GIPR antagonist antibody portion of AMG 133 (maridebart cafraglutide); benchmark antibody [reference compound]”, half-maximal inhibition (IC50) was put at 30.4 nM.

(Values after patent publication US20250163168A1, “NOVEL ANTIBODIES AND ANTIBODY CONJUGATES FOR THE TREATMENT OF METABOLIC DISORDERS” (PFIZER INC., priority 2023, published 2025).)
